Measured values taken from patent US20180237475A1 (BIONIZ, published 2018).

Target: T1, human γc-subunit (common γ subunit, CD132) (human, UniProt P31785 23-369)
T1 sequence (looked up): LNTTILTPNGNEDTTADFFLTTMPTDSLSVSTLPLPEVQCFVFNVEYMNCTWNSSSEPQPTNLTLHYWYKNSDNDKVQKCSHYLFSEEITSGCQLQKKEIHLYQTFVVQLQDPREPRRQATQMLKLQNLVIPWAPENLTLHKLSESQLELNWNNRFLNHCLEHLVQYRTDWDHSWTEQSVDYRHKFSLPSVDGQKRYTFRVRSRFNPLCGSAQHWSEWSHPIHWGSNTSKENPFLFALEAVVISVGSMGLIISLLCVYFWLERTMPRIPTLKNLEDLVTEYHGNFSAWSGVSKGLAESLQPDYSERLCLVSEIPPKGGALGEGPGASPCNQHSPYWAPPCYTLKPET
Assay: cell-based or functional assay

Binder: IKEFLQRFIHIVQSIINTS [BNZ132-1]
- IC50 on IL-2/IL-15-induced (0.1 nM each) proliferation of ex vivo human T-lymphocytes: 150 nM
